# Numbered stars: 1 amine (or outer) side, 2 acyl side, 3 side chain; on linkers, the order of the positions; unused ones are H or OH. Bridge positions count the residues as written; N and C are the ends. Side chains are listed from the residue outwards. Ends that are not written are not given here. * marks the point of attachment. C20 diacid = O=C(O)CCCCCCCCCCCCCCCCCCC(=O)*; γGlu = O=C(O)[C@H](CCC(=O)[*:2])N[*:1]; AEEA = NCCOCCOCC(=O)O
# T1: rat calcitonin receptor (rat, UniProt P32214 25-516)
# T1 construct: whole, on cells; also called rCTR; rat calcitonin (a) receptor
# T1 sequence (looked up): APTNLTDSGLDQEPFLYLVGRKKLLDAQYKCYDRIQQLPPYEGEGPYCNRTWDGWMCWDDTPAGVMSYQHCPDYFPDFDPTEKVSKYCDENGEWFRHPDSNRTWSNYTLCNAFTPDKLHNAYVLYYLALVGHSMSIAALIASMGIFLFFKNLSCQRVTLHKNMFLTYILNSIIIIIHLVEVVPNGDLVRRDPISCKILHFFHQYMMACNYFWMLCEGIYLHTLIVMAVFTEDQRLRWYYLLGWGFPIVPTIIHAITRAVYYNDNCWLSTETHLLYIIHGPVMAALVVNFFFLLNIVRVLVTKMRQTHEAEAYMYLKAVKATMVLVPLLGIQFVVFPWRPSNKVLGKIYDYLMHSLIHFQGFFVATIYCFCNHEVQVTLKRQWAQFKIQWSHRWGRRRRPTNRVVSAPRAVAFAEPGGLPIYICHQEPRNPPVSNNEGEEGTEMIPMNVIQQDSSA
# T2: human calcitonin receptor (human, UniProt P30988 25-474)
# T2 construct: whole, on cells; also called hCTR; hCT
# T2 sequence (looked up): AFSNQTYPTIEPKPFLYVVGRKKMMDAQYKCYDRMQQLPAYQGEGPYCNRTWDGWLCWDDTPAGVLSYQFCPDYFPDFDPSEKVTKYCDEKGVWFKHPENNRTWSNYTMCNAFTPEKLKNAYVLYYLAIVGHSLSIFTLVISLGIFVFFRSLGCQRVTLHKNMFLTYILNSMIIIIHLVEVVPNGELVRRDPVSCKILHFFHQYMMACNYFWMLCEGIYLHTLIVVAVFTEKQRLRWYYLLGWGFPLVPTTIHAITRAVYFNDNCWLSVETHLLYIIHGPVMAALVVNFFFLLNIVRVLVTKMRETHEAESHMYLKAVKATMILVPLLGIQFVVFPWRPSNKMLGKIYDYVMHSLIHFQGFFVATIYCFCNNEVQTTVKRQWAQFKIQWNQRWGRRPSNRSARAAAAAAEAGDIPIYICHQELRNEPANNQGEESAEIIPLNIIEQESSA
# T3: rat amylin receptor (rat calcitonin receptor + rat RAMP 3) (rat, UniProt P32214 25-516; Q9JJ73 23-147)
# T3 construct: whole, on cells; also called rAmylin-R; rat amylin 3(a) receptor
# T3 sequence (looked up) 1: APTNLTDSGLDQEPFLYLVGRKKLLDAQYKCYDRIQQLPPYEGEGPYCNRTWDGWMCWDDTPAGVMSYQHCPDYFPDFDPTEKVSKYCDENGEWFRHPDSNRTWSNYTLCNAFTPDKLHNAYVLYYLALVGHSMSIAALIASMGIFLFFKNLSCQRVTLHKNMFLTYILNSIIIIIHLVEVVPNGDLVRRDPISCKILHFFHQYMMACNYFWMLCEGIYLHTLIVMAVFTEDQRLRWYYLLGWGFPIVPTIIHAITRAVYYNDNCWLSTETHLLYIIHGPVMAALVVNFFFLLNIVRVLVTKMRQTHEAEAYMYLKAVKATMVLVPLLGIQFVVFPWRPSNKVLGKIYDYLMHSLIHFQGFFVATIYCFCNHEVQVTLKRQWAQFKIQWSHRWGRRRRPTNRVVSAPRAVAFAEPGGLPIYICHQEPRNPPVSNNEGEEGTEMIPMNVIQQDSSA
# T3 sequence (looked up) 2: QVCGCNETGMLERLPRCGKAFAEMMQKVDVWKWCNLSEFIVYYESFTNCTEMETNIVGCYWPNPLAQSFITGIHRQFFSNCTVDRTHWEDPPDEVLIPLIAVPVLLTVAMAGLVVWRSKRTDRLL
# Key:
# rat calcitonin receptor [1] = target: T1, rat calcitonin receptor; assay: SPA competition with 125I-calcitonin, membranes of BHK cells with rat calcitonin receptor (Assay VIII)
# [2] = target: T2, human calcitonin receptor; assay: ratio of binding IC50s: human calcitonin receptor over human amylin receptor (reference)
# Method: The resulting pellet was resuspended, homogenized and centrifuged (20.000 rpm, 15 min) in a buffer containing 20 mM Na-HEPES and 0.1 mM EDTA (pH 7.4, buffer 2). The resulting pellet was resuspended in buffer 2 and protein concentration was measured (BCA protein Assay, Pierce). The homogenate was kept cold during the whole procedure. The membranes were kept at −80° C. until use. The assay was performed in a 384 well Optiplate (PerkinElmer) in a total volume of 40 ul. Membranes were mixed with SPA beads. Final concentration of membranes 35 ng/μL final and SPA beads was 0.05 mg/well. Test-compounds were dissolved in DMSO and further diluted in assay buffer (50 mM Hepes, pH 7.4, 1 mM CaCl2, 5 mM MgCl₂, 0.1% OA and 0.02% Tween20). […] The final mixture was incubated with shaking at 400 rpm for 120 min at 25° C. prior to centrifugation (1500 rpm, 10 min). Samples were analyzed on TopCounter™ (Packard). The IC₅₀ was calculated using (one site binding competition analysis) GraphPad Prism5 as a measure of receptor affinity.
# Membranes were prepared in the following way; the cells were rinsed with PBS and incubated with Versene for approximately 5 min before harvesting. The cells were flushed with PBS and the cell-suspension was centrifuged for 5 min at 1000 rpm. Cells were homogenized (Ultrathurrax) in a buffer containing 20 mM Na-HEPES and 10 mM EDTA (pH 7.4) and centrifuged at 20.000 rpm for 15 min. The resulting pellet was resuspended, homogenized and centrifuged (20.000 rpm, 15 min) in a buffer containing 20 mM Na-HEPES and 0.1 mM EDTA (pH 7.4, buffer 2). The resulting pellet was resuspended in buffer 2 and protein concentration was measured (BCA protein Assay, Pierce). The homogenate was kept cold during the whole procedure. The membranes were kept at −80° C. until use. Assay was performed in a 384 well Optiplate (PerkinElmer) in a total volume of 40 ul. Membranes were mixed with SPA beads.
# rat calcitonin receptor [3] = target: T1, rat calcitonin receptor; assay: ratio of binding IC50s: rat calcitonin receptor over rat amylin receptor (reference)
# [4] = target: T3, rat amylin receptor (rat calcitonin …); assay: SPA competition with 125I-rat amylin, membranes of BHK cells with rat calcitonin receptor + rat RAMP3 (Assay VI)
Binder,IC50 (rat calcitonin receptor [1]) [nM],Ratio hCT/hAmylin binding [2],Ratio rCT/rAmylin binding (rat calcitonin receptor [3]),IC50 [4] [nM]
"K([AEEA-γGlu-C20 diacid])CNTATCATQRLARFLRHSSPNFGAIPSSTPVGSNTY-NH2 (disulfide 2-7; N-terminus assumed; SMILES CC[C@H](C)[C@H](NC(=O)[C@H](C)NC(=O)CNC(=O)[C@H](Cc1ccccc1)NC(=O)[C@H](CC(N)=O)NC(=O)[C@@H]1CCCN1C(=O)[C@H](CO)NC(=O)[C@H](CO)NC(=O)[C@H](Cc1c[nH]cn1)NC(=O)[C@H](CCCNC(=N)N)NC(=O)[C@H](CC(C)C)NC(=O)[C@H](Cc1ccccc1)NC(=O)[C@H](CCCNC(=N)N)NC(=O)[C@H](C)NC(=O)[C@H](CC(C)C)NC(=O)[C@H](CCCNC(=N)N)NC(=O)[C@H](CCC(N)=O)NC(=O)[C@@H](NC(=O)[C@H](C)NC(=O)[C@@H]1CSSC[C@H](NC(=O)[C@@H](N)CCCCNC(=O)COCCOCCNC(=O)CC[C@H](NC(=O)CCCCCCCCCCCCCCCCCCC(=O)O)C(=O)O)C(=O)N[C@@H](CC(N)=O)C(=O)N[C@@H]([C@@H](C)O)C(=O)N[C@@H](C)C(=O)N[C@@H]([C@@H](C)O)C(=O)N1)[C@@H](C)O)C(=O)N1CCC[C@H]1C(=O)N[C@@H](CO)C(=O)N[C@@H](CO)C(=O)N[C@H](C(=O)N1CCC[C@H]1C(=O)N[C@H](C(=O)NCC(=O)N[C@@H](CO)C(=O)N[C@@H](CC(N)=O)C(=O)N[C@H](C(=O)N[C@@H](Cc1ccc(O)cc1)C(N)=O)[C@@H](C)O)C(C)C)[C@@H](C)O, synthetic analogue of human amylin; also called compound 64)",128,126,64.7,1.97
"K([AEEA-γGlu-C20 diacid])CNTATCATQRLARFLRHSSPNFGAIPSSTNVGSNTY-NH2 (disulfide 2-7; N-terminus assumed; SMILES CC[C@H](C)[C@H](NC(=O)[C@H](C)NC(=O)CNC(=O)[C@H](Cc1ccccc1)NC(=O)[C@H](CC(N)=O)NC(=O)[C@@H]1CCCN1C(=O)[C@H](CO)NC(=O)[C@H](CO)NC(=O)[C@H](Cc1c[nH]cn1)NC(=O)[C@H](CCCNC(=N)N)NC(=O)[C@H](CC(C)C)NC(=O)[C@H](Cc1ccccc1)NC(=O)[C@H](CCCNC(=N)N)NC(=O)[C@H](C)NC(=O)[C@H](CC(C)C)NC(=O)[C@H](CCCNC(=N)N)NC(=O)[C@H](CCC(N)=O)NC(=O)[C@@H](NC(=O)[C@H](C)NC(=O)[C@@H]1CSSC[C@H](NC(=O)[C@@H](N)CCCCNC(=O)COCCOCCNC(=O)CC[C@H](NC(=O)CCCCCCCCCCCCCCCCCCC(=O)O)C(=O)O)C(=O)N[C@@H](CC(N)=O)C(=O)N[C@@H]([C@@H](C)O)C(=O)N[C@@H](C)C(=O)N[C@@H]([C@@H](C)O)C(=O)N1)[C@@H](C)O)C(=O)N1CCC[C@H]1C(=O)N[C@@H](CO)C(=O)N[C@@H](CO)C(=O)N[C@H](C(=O)N[C@@H](CC(N)=O)C(=O)N[C@H](C(=O)NCC(=O)N[C@@H](CO)C(=O)N[C@@H](CC(N)=O)C(=O)N[C@H](C(=O)N[C@@H](Cc1ccc(O)cc1)C(N)=O)[C@@H](C)O)C(C)C)[C@@H](C)O, synthetic analogue of human amylin; also called compound 82)",143,140,87,1.64
"K([AEEA-γGlu-C20 diacid])CNTATCATQRLANFLRHSSPNFGAIPSSTNVGRNTY-NH2 (disulfide 2-7; N-terminus assumed; SMILES CC[C@H](C)[C@H](NC(=O)[C@H](C)NC(=O)CNC(=O)[C@H](Cc1ccccc1)NC(=O)[C@H](CC(N)=O)NC(=O)[C@@H]1CCCN1C(=O)[C@H](CO)NC(=O)[C@H](CO)NC(=O)[C@H](Cc1c[nH]cn1)NC(=O)[C@H](CCCNC(=N)N)NC(=O)[C@H](CC(C)C)NC(=O)[C@H](Cc1ccccc1)NC(=O)[C@H](CC(N)=O)NC(=O)[C@H](C)NC(=O)[C@H](CC(C)C)NC(=O)[C@H](CCCNC(=N)N)NC(=O)[C@H](CCC(N)=O)NC(=O)[C@@H](NC(=O)[C@H](C)NC(=O)[C@@H]1CSSC[C@H](NC(=O)[C@@H](N)CCCCNC(=O)COCCOCCNC(=O)CC[C@H](NC(=O)CCCCCCCCCCCCCCCCCCC(=O)O)C(=O)O)C(=O)N[C@@H](CC(N)=O)C(=O)N[C@@H]([C@@H](C)O)C(=O)N[C@@H](C)C(=O)N[C@@H]([C@@H](C)O)C(=O)N1)[C@@H](C)O)C(=O)N1CCC[C@H]1C(=O)N[C@@H](CO)C(=O)N[C@@H](CO)C(=O)N[C@H](C(=O)N[C@@H](CC(N)=O)C(=O)N[C@H](C(=O)NCC(=O)N[C@@H](CCCNC(=N)N)C(=O)N[C@@H](CC(N)=O)C(=O)N[C@H](C(=O)N[C@@H](Cc1ccc(O)cc1)C(N)=O)[C@@H](C)O)C(C)C)[C@@H](C)O, synthetic analogue of human amylin; also called compound 78)",90.6,60.7,69.9,1.3

# Now from value to binder:
IC50 (rat calcitonin receptor [1]) [nM],Ratio hCT/hAmylin binding [2],Ratio rCT/rAmylin binding (rat calcitonin receptor [3]),IC50 [4] [nM],Binder
38.9,80,56.8,0.686,"K([AEEA-γGlu-C20 diacid])CNTATCATQRLANFLRHSSPNFGAIPSSTNVGHNTY-NH2 (disulfide 2-7; N-terminus assumed; SMILES CC[C@H](C)[C@H](NC(=O)[C@H](C)NC(=O)CNC(=O)[C@H](Cc1ccccc1)NC(=O)[C@H](CC(N)=O)NC(=O)[C@@H]1CCCN1C(=O)[C@H](CO)NC(=O)[C@H](CO)NC(=O)[C@H](Cc1c[nH]cn1)NC(=O)[C@H](CCCNC(=N)N)NC(=O)[C@H](CC(C)C)NC(=O)[C@H](Cc1ccccc1)NC(=O)[C@H](CC(N)=O)NC(=O)[C@H](C)NC(=O)[C@H](CC(C)C)NC(=O)[C@H](CCCNC(=N)N)NC(=O)[C@H](CCC(N)=O)NC(=O)[C@@H](NC(=O)[C@H](C)NC(=O)[C@@H]1CSSC[C@H](NC(=O)[C@@H](N)CCCCNC(=O)COCCOCCNC(=O)CC[C@H](NC(=O)CCCCCCCCCCCCCCCCCCC(=O)O)C(=O)O)C(=O)N[C@@H](CC(N)=O)C(=O)N[C@@H]([C@@H](C)O)C(=O)N[C@@H](C)C(=O)N[C@@H]([C@@H](C)O)C(=O)N1)[C@@H](C)O)C(=O)N1CCC[C@H]1C(=O)N[C@@H](CO)C(=O)N[C@@H](CO)C(=O)N[C@H](C(=O)N[C@@H](CC(N)=O)C(=O)N[C@H](C(=O)NCC(=O)N[C@@H](Cc1c[nH]cn1)C(=O)N[C@@H](CC(N)=O)C(=O)N[C@H](C(=O)N[C@@H](Cc1ccc(O)cc1)C(N)=O)[C@@H](C)O)C(C)C)[C@@H](C)O, synthetic analogue of human amylin; also called compound 76)"
10.9,104,130,0.084,"K([AEEA-γGlu-C20 diacid])CNTATCATQRLANFLRHSSPNFGAIPPSTPVGSNTY-NH2 (disulfide 2-7, synthetic analogue of human amylin; also called compound 53)"

# — US20140087995A1 (published 2014)
